Measured values published in paper PMC4964977 (Biochemical Journal, 2016).
Square brackets hold non-standard residues; d marks the D form. Ends that are not written are not given here. * marks the point of attachment. Biotin = O=C1N[C@H]2[C@H](CS[C@H]2CCCCC(=O)*)N1; pS = N[C@@H](COP(=O)(O)O)C(=O)O

T1: PLM 20-mer RCKFNQQQRTGEPDEEEGTF (R41–F60), on membrane (mouse, covalently linked to the membrane)
T1 peptide: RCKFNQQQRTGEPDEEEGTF

T2: native NCX1(301–320) peptide synthesized on membrane (rat, covalently linked to the membrane)
T2 peptide: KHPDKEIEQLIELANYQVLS


Key:
[1] = biological target: T1, PLM 20-mer RCKFNQQQRTGEPDEEEGTF …; experiment: peptide or protein array
[2] = biological target: T2, native NCX1(301–320) peptide …; experiment: peptide or protein array

Binder	binding result [1]	binding result [2]
Biotin-KHPDKEIEQLIELANYQVLS [biotin–NCX1(301–320)]	binds	
Biotin-ARILKELKQKHPDKEIEQLI [biotin–NCX1(292–311)]	binds	

Continued, values first:

binding result [1]	binding result [2]	Binder
binds		Biotin-KQRGMIIEHEGDRPASKTEI [biotin–NCX1(235–254)]
	binds	Biotin-KRCRCKFNQQQRTGEPDEEEGTFRSSIRRL[pS]SRRR (cysteine pairing not given here) [biotin–pSer68-PLMcyt]
